Measured values from PMC5234850 (Cell reports, 2017).
One block for each molecule: values may come before it.

Legend:
[1] = molecular target: human Mre11 core (2-411aa), N-terminal his-tagged (human) (UniProt P49959); assay: SEC
[2] = molecular target: T1, human Mre11 core (2-411aa), N-terminal his-tagged (human, UniProt P49959 2-411); assay: SEC
T1 sequence (looked up): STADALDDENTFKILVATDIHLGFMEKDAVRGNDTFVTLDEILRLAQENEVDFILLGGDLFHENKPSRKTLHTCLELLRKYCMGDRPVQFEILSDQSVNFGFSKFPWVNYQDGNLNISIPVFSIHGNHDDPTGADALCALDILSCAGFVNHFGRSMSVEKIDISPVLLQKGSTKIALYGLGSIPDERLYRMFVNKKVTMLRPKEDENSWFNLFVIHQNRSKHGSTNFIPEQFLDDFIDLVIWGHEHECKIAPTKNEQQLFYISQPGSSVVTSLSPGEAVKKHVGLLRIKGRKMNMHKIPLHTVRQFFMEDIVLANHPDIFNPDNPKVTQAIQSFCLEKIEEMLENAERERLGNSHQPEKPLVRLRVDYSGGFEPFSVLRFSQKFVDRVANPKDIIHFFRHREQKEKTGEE

stoichiometry N [1]: 2
Molecule: human Mre11 core (2-411aa), N-terminal his-tagged (from UniProt P49959 2-411) (domain or fragment)

binding result [2]: binds
B1: human Nbs1 F4 (622-729aa) fused to maltose binding protein (domain or fragment, UniProt O60934 622-729, looked up)
chain: KKRELKEDSLWSAKEISNNDKLQDDSEMLPKKLLLTEFRSLVIKNSTSRNPSGINDDYGQLKNFKKFKKVTYPGAGKLPHIIGGSDLIAHHARKNTELEEWLRQEMEV
